Our source for the EC50 values is US20260347491.

The target of this test is human CD32b (FcgRIIb) (human) (UniProt P31994). Nature of the test: FACS.
human CD32b (FcgRIIb) (human), sequence (P31994 46-217): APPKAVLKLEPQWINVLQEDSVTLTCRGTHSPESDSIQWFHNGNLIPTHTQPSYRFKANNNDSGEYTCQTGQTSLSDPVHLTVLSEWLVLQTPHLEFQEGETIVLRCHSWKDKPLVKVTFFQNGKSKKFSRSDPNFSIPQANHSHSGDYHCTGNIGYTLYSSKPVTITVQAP

Substance Pertuzumab (full) gave an EC50 of 1.35 nM. In other words, the single-digit nanomolar range.
As for Trastuzumab (full), the half-maximal effective concentration (EC50) is 14.1 nM.
